# Source: paper PMC3820802, “Activin Signaling Targeted by Insulin/dFOXO Regulates Aging and Muscle Proteostasis in Drosophila”
# T1: Smox MH1 DNA-binding domain (UniProt O96660 1-140)
# T1 sequence: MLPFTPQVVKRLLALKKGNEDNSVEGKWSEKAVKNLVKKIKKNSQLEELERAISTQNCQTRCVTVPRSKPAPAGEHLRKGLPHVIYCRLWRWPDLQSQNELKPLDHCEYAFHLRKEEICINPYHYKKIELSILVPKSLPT
# B1: Atg8a-Mut3 (dsDNA)
# DNA 1: CATATTAGATAGATACCATT
# DNA 2: AATGGTATCTATCTAATATG
# B2: SBE (vertebrate Smad binding element) (dsDNA)
# DNA 1: GTATGTCTAGACTGAA
# DNA 2: TTCAGTCTAGACATAC
# B3: Atg8a-Mut2 (dsDNA)
# DNA 1: CATATTAGCTACATACCATT
# DNA 2: AATGGTATGTAGCTAATATG
# B4: Atg8a probe (dsDNA)
# DNA 1: CATATTAGACAGACACCATT
# DNA 2: AATGGTGTCTGTCTAATATG
# Experiments:
# [1] = target: T1, Smox MH1 DNA-binding domain; test: competition; EMSA, cold competitor vs labeled N1; did not compete; 10 mM Tris-HCl pH 7.5, 150 mM KCl, 5 mM MgCl2, 10 ng/uL poly(dI-dC), ~50 ng probe, 20 ug protein in 10 uL, room temperature 20 min; 0.8% agarose, 0.5x TBE; conditions: protein: recombinant; tags: His6-HaloTag (pFN29K vector; purified with HaloTag kit, tag retention: called Halo-tagged in legend); (only one strand seen in the material)
# [2] = target: T1, Smox MH1 DNA-binding domain; test: EMSA; 10 mM Tris-HCl pH 7.5, 150 mM KCl, 5 mM MgCl2, 10 ng/uL poly(dI-dC), ~50 ng probe, 20 ug protein in 10 uL, room temperature 20 min; 0.8% agarose, 0.5x TBE; conditions: protein: recombinant; tags: His6-HaloTag (pFN29K vector; purified with HaloTag kit, tag retention: called Halo-tagged in legend); label: 3' biotin; (only one strand seen in the material)
# [3] = target: T1, Smox MH1 DNA-binding domain; test: EMSA; blocked by unlabeled wild-type probe; 10 mM Tris-HCl pH 7.5, 150 mM KCl, 5 mM MgCl2, 10 ng/uL poly(dI-dC), ~50 ng probe, 20 ug protein in 10 uL, room temperature 20 min; 0.8% agarose, 0.5x TBE; conditions: protein: recombinant; tags: His6-HaloTag (pFN29K vector; purified with HaloTag kit, tag retention: called Halo-tagged in legend); (only one strand seen in the material)
Binder,binding result [1],other results
B1,no binding,–
B2,–,binding result [2]: binds
B3,no binding,–
B4,–,binding result [3]: binds
